Data reported in patent US20030040012A1 (published 2003).
Where a chain is given by its changes, count along the chain named. Names may count otherwise.

T1: NpwBP (Homo sapiens (Human), UniProt Q9Y2W2 1-641)
T1 construct: Expressed inside COS7 cells, without an added protein A because it has its own nuclear localization signal
T1 sequence: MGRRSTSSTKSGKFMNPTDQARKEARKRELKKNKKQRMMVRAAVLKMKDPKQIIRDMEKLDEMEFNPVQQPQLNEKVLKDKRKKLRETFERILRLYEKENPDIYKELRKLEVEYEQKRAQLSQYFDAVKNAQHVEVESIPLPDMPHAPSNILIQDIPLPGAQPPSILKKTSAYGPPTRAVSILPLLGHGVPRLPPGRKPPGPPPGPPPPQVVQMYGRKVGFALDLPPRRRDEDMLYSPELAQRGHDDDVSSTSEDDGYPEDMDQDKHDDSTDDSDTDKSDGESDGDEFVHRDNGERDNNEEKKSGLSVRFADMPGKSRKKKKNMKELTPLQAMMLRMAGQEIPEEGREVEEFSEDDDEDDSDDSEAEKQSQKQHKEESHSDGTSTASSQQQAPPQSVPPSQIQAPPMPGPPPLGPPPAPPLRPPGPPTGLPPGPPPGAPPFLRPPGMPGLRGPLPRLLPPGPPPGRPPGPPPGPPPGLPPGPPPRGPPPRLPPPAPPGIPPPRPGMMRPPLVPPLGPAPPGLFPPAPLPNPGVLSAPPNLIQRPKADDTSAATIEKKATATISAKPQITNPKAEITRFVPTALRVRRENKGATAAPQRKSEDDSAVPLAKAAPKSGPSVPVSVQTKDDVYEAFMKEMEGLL

B1: fusion protein HA-Npw38 (other)
chain: MPLPVALQTRLAKRGILKHLEPEPEEEIIAEDYDDDPVDYEATRLEGLPPSWYKVFDPSCGLPYYWNADTDLVSWLSPHDPNSVVTKSAKKLRSSNADAEEKLDRSHDKSDRGHDKSDRSHEKLDRGHDKSDRGHDKSDRDRERGYDKVDRERERDRERDRDRGYDKADREEGKERRHHRREELAPYPKSKKAVSRKDEELDPMDPSSYSDAPRGTWSTGLPKRNEAKTGADTTAAGPLFQQRPYPSPGAVLRANAEASRTKQQD
notes: All are treated as the same molecule; not shown: HA tag (protein A of fusion A-X)
B2: Npw38(W52A), a WW domain variant of Npw38 (other)
chain: B1 chain with W52A
notes: Expressed in COS7 cells in place of HA-Npw38

Key:
[1] = target: T1, NpwBP; assay: competition by co-expression in COS7 cells, GFP localization
[2] = target: T2, fusion protein NpwBP(P2)-GFP (UniProt P42212 1-238 = GFP, limits assumed); assay: co-expression in COS7 cells, fluorescence microscopy of GFP localization
T2 construct: Expressed inside COS7 cells from pKA1-NpwBP(P2)-GFP; also called NpwBP-GFP
Experimental: After the medium was removed, the cell sur were washed with a phosphate buffer solution (PBS), and then further washed with a 50 mM Tris-HCl (pH 7.5)-containing DMEM. To these cells, added was a suspension comprising 1 μl of a plasmid suspension, 0.6 ml of DMEM and 3 μl of […]™ (from IBF), and incubated in the presence of 5% CO₂ at 37° C. for 12 hours. Then, the cells were washed with PBS, and fixed with 4% peraformaldehyde-containing PBS at room temperature for 10 minutes. The thus-fixed cells were washed with PBS, then treated with 0.2% Triton X-100, and thereafter blocked with 5% milk PBS. […]
First, pKA1-NpwBP(P1)-GFP or pKA1-NpwBP(P2)-GFP was singly introduced into COS7 cells, and the localization of these fusion proteins in the cells was checked through fluorescence microscopy based on the green fluorescence of GFP as the index thereof. […] Next, along with these NpwBP-GFP fusion protein expression vectors, an Npw38 expression vector, pKA1-Npw38 was introduced into COS7 cells, and the green fluorescence was localized in the nucleus of each cell (FIG. 3b). […] On the other hand, when Npw38(W52A) (A. Komuro et al., Nucl. Acids Res., 27: 1957-1965, 1999), which is a WW domain variant of Npw38, was expressed in the cells in place of HA-Npw38, or when GFP was expressed in the cells in place of NpwBP-GFP, no intranuclear localization of the green fluorescence was found.

| Binder | binding result [1] | binding result [2] |
| --- | --- | --- |
| B1 | binds | binds |
| B2 | – | no binding |
